Assays:
ITGA6-Fc = molecular target: T1, ITGA6-Fc; assay: ELISA, 1 ug/ml
T1 construct: Fc fusion
T1 sequence (P23229 whole entry, species assumed, looked up): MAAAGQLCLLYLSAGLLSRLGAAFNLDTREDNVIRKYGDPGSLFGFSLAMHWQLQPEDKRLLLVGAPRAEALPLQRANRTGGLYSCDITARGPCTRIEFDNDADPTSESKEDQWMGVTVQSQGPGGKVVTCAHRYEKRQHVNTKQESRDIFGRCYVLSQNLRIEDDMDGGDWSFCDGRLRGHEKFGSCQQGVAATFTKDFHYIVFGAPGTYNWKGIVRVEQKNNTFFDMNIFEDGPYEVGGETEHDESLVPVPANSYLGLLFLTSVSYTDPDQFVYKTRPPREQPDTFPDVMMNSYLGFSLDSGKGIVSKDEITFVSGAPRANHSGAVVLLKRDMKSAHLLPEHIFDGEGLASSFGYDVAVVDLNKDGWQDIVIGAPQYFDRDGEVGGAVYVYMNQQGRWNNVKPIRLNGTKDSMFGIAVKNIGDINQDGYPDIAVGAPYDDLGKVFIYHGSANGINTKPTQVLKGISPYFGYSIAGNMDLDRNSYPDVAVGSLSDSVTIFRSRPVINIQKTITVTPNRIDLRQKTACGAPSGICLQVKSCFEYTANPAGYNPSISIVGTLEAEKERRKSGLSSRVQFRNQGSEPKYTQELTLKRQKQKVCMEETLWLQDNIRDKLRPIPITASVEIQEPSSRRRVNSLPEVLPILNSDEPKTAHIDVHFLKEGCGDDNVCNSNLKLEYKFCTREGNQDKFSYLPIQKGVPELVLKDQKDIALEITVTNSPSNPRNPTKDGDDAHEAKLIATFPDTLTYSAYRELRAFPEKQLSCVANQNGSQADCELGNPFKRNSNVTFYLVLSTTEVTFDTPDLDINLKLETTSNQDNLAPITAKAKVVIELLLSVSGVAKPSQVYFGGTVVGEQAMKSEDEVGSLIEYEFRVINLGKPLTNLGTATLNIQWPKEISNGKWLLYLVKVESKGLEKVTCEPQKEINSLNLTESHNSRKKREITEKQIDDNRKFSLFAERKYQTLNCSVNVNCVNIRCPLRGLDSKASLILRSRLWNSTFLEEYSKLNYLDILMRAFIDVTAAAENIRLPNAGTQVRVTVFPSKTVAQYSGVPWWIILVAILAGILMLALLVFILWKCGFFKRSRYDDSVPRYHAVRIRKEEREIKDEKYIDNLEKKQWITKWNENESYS

M11 = molecular target: T2, M11; assay: ELISA, 1 ug/ml
T2 construct: also called PD1 mutant M11

PD1-hFc [1] = molecular target: T3, PD1-hFc (human, UniProt Q15116 25-170); assay: competition ELISA: PD1-Fc coated, PDL1-His as binder, antibody as competitor
T3 construct: extracellular domain; also called PD1-hFc protein; Human PD-1-Fc (S1420, Y-Biologics)
Experimental: (§1) Human PD-1-Fc (S1420, Y-Biologics) or PD-L2-Fc (#10292-H02H, Sino) was added to wells of a 96-well immuno microplate (#439454, Thermo) and then washed three times with PBS containing 0.05% tween-20 (#P9416, Sigma-Aldrich), followed by allowing to stand in a cleaning solution containing 4% skim milk (#232120, Becton, Dickinson and Company) at room temperature for 1 hour to block non-specific binding. […] After the resulting product was subjected to the same washing method as above, the anti-Biotin-His antibody (#MA1-21315-BTIN, Thermo) diluted to 1:2000 was added to the well of the microplate, allowed to react at room temperature for 1 hour, streptavidin poly-HRP antibody (#21140, Pierce) diluted to 1:5000 was added to the well of microplate, reacted at room temperature for 1 hour and then washed in the same manner. 100 ul of a TMB substrate solution (#T0440, Sigma-Aldrich) was added to the reaction product, light was shielded, and the reaction product was allowed to stand at room temperature for 3 minutes, 50 μL of 2.5 M sulfuric acid (#S1478, Samchun) was added to stop the reaction, and absorbance was measured at 450 nm using a spectrophotometer (*GM3000, Glomax® Discover System Promega).

PD1-hFc [2] = molecular target: T3, PD1-hFc; assay: SPR ProteOn XPR36, PD1-hFc immobilised, antibody as analyte
Experimental: A ProteOn XPR36 (BioRad) instrument was used. The GLC sensor chip (BioRad) was mounted on the instrument and washed with PBST buffer, and the carboxymethyldextran surface was activated with an EDC/sulfo-NHS mixed solution. PD1-hFc dissolved at a concentration of 5 ug/ml in a 10 mM sodium acetate buffer solution (pH 5.0) was injected and immobilized on the GLC sensor chip.
In order to deactivate the activated carboxyl groups that remain unreacted with the PD1 protein, 1 M ethanolamine was flowed and 10 mM glycine (pH 2.0) was injected in order to wash proteins that remain unbound to the sensor chip.
The equilibrium dissociation constant (KD) was calculated by plotting and fitting the sensogram data in the equilibrium state depending on concentration.

[3] = molecular target: T4, human PD-1 (NM_005018.2) over-expressed on cells (human, UniProt Q15116 25-288); assay: flow cytometry on cells over-expressing human PD-1, fit of Geometric Mean
T4 construct: whole, on cells; also called human PD-1 over-expressed on the cell surface; Jurkat cell line highly expressing human PD-1

monkey PD1 protein = molecular target: T5, monkey PD1 protein (monkey); assay: SPR ProteOn XPR36; format for monkey PD1 not described
T5 construct: also called monkey PD-1 proteins

[4] = molecular target: T4, human PD-1 (NM_005018.2) over-expressed …; assay: cell-based or functional assay
rat PD1 protein = molecular target: T6, rat PD1 protein (rat, UniProt D3ZIN8 25-169); assay: SPR ProteOn XPR36; format for rat PD1 not described
T6 construct: also called rat PD-1 proteins
T6 sequence: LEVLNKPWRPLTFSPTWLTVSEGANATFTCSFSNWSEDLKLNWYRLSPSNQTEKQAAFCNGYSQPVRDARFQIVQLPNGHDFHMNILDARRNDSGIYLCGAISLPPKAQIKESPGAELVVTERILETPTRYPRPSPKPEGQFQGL

[5] = molecular target: T4, human PD-1 (NM_005018.2) over-expressed …; assay: cell-based or functional assay; remark: listed apart in the source
[6] = molecular target: T7, PD-1-His (S1352, Y-Biologics) (UniProt Q15116 25-170, limits assumed); assay: competition ELISA: PD-L2-Fc coated, PD-1-His as binder, antibody as competitor
T7 construct: not shown: His tag
Experimental: as §1

M7 = molecular target: T8, M7; assay: ELISA, 1 ug/ml
T8 construct: also called PD1 mutant M7

PD1-hFc [7] = molecular target: T3, PD1-hFc; assay: ProteOn XPR36; legend names PD1-hFc, the sheet names the immobilised protein PD-1 C-his

B1: mPDL2-mFC (Fc fusion, mouse (prefix m on the sheet), UniProt Q9WUL5 20-221, looked up)
ligand fused to Fc: LFTVTAPKEVYTVDVGSSVSLECDFDRRECTELEGIRASLQKVENDTSLQSERATLLEEQLPLGKALFHIPSVQVRDSGQYRCLVICGAAWDYKYLTVKVKASYMRIDTRILEVPGTGEVQLTCQARGYPLAEVSWQNVSVPANTSHIRTPEGLYQVTSVLRLKPQPSRNFSCMFWNAHMKELTSAIIDPLSRMEPKVPRTW
notes: mFC fusion
B1 was tested, and the OD490 (ITGA6-Fc) was 0.3 and the OD490 (M11) was 1.7.

B2: PD1-49A2(A/2B9) (antibody, V domains shown)
VH: QVQLVESGGGVVQPGRSLRLSCAASGFTFLRYAMHWVRQAPGKGLEWVAVISYDGRYKYYADSVKGRFTISRDNSKNTLYLQMNSLRAEDTAVYYCTTTTFDSWGQGTLVTVSS
VL: DIVMTQTPLSLPVTPGEAASISCRSSQSLLDSEDGNTYLDWYLQKPGQSPQLLIYTLSHRASGVPDRFSGSGSGTDFTLEISRVEAEDVGVYYCMQRRDFPFTFGQGTKVDIK
notes: scFv-phage in the screening ELISA; whole IgG in the other assays; also called 49A2-2B9; 49A2 (2B9)
With B2 the IC50 (PD1-hFc [1]) was 6.38 nM, the kon (PD1-hFc [2]) was 377000 M⁻¹ s⁻¹ and the Bmax [3] was 2900. It also gave a Kd [3] of 6.2 nM, a Kd (monkey PD1 protein) of 0.001 nM and a koff (monkey PD1 protein) of 1e-07 s⁻¹. For the same binder, the kon (monkey PD1 protein) was 185000 M⁻¹ s⁻¹, the “EC50 [nM], PD1/PD-L1 blockade bioassay” value [4] was 1.23 nM and the Kd (rat PD1 protein) was 4.23 nM. For the same binder, the koff (rat PD1 protein) was 0.000625 s⁻¹, the kon (rat PD1 protein) was 148000 M⁻¹ s⁻¹ and the EC50 [5] was 0.689 nM. For the same binder, the IC50 [6] was 59 nM, the OD490 (ITGA6-Fc) was 0.1 and the OD490 (M11) was 0.433. It also gave an OD490 (M7) of 0.083, a Kd (PD1-hFc [7]) of less than 0.001 nM and a koff (PD1-hFc [7]) of less than 1e-07 s⁻¹.

B3: PD1-49A2(A/1H8) (antibody, V domains shown)
VH: QVQLVESGGGVVQPGRSLRLSCAASGFTFKTYAMHWVRQAPGKGLEWVAVISYDGQHKYYADSVKGRFTISRDNSKNTLYLQMNSLRAEDTAVYYCTTTTFDSWGQGTLVTVSS
VL: DIVMTQTPLSLPVTPGEPASISCRSSQSLLDRDGGHTYVDWYLQKPGQSPRLLIYTLSHRALGVPDRFSGSGSGTDFTLKISRVEADDVGLYYCMQRIEFPFTFGQGTKVEIK
notes: scFv-phage in the screening ELISA; whole IgG in the other assays; also called 49A2-1H8; PD1 49A2 1H8
B3 gave a Kd (PD1-hFc [2]) of 0.0124 nM, a koff (PD1-hFc [2]) of 2.74e-06 s⁻¹ and a kon (PD1-hFc [2]) of 220000 M⁻¹ s⁻¹. The “EC50 [nM], PD1/PD-L1 blockade bioassay” value [4] was 1.21 nM and the EC50 [5] was 1.45 nM.

B4: PD1-49A2(A/2A6) (antibody, V domains shown)
VH: QVQLVESGGGVVQPGRSLRLSCAASGFTFKYYAMHWVRQAPGKGLEWVTVISYDGQYKYYADSVKGRFTISRDNSKNTLYLQMNSLRAEDTAVYYCTTTTFDSWGQGTLVTVSS
VL: DIVMTQTPLSLPVTPGEAASISCRSSQSLLDSEDGNTYLDWYLQRPGQSPQLLIYTLSHRASGVPGRFSGSGSGTEFNLRISRVEAEDVGIYYCMQRVEFPFTFGQGTKVEIK
notes: scFv-phage in the screening ELISA; whole IgG in the other assays; also called 49A2-2A6; PD1 49A2 2A6
With B4 the Kd (PD1-hFc [2]) was 0.0691 nM, the koff (PD1-hFc [2]) was 2.14e-05 s⁻¹ and the kon (PD1-hFc [2]) was 310000 M⁻¹ s⁻¹. For the same binder, the “EC50 [nM], PD1/PD-L1 blockade bioassay” value [4] was 1.51 nM and the EC50 [5] was 1.67 nM.

B5: PD1-45D6(A/5B2) (antibody, V domains shown)
VH: QVQLVESGGGVVQPGRSLRLSCAASGFTFSFYAMHWVRQAPGKGLEWVAVISYDGNDKYYADSVKGRFTISRDNSKNTLYLQMNSLRAEDTAVYYCVPTTFEYWGQGTLVTVSS
VL: DIVMTQTPLSPPVTPGEPASISCRSSQSLLDSDDGNTYLDWYLQKPGQSPQLLIYTLSHRASGVPDRFSGSGSGTDFTLEISRVEAEDVGVYYCMQRRDFPFTFGQGTKLDIK
notes: scFv-phage in the screening ELISA; whole IgG in the other assays; also called 45D6-5B2; PD1 45D6 5B2
In the case of B5, the IC50 (PD1-hFc [1]) is reported as 3.09 nM, the Kd (PD1-hFc [2]) is reported as 0.0582 nM and the koff (PD1-hFc [2]) is reported as 1.93e-05 s⁻¹. The kon (PD1-hFc [2]) was 332000 M⁻¹ s⁻¹, the kon (monkey PD1 protein) was 208000 M⁻¹ s⁻¹ and the “EC50 [nM], PD1/PD-L1 blockade bioassay” value [4] was 1.48 nM. For the same binder, the Kd (rat PD1 protein) was 4.59 nM, the koff (rat PD1 protein) was 0.000863 s⁻¹ and the kon (rat PD1 protein) was 188000 M⁻¹ s⁻¹. It also gave an EC50 [5] of 1.66 nM, an IC50 [6] of 75.4 nM and an OD490 (ITGA6-Fc) of 0.124. It also gave an OD490 (M11) of 0.446 and an OD490 (M7) of 0.238.

B6: PD1-62E1 (antibody, V domains shown)
VH: QVQLVESGGDLVKPGRSLRLSCTGSGFTFGDHPLTWVRQIPGKGLEWVGFIRSKAYGETTEYAASVKGRFTISRDDSKSIAYLQMNSLRAEDTAVYYCASVSYCSGGSCYQGTFDYWGQGTLVTVSS
VL: DIQMTQSPAILSLSPGERATLSCRASQSVTSDVAWYQHIRGQAPRLLIYDASNRASGIPARFSGGGSGTEFTLTISSLEPEDFAVYYCQQYNNWPLTFGGGTKVEIK
B6 was tested, and the IC50 (PD1-hFc [1]) was 2.89 nM, the “EC50 [nM], PD1/PD-L1 blockade bioassay” value [4] was 2.73 nM and the IC50 [6] was 314 nM.
